Patent US20220275083A1 (EUTILEX, published 2022)
Numbering of substitutions follows the chain as printed. Names may count otherwise.

T1: biotinylated PD-L2 (SinoBiologics, Cat. No. 10292-H08H-B) (UniProt Q9BQ51 20-219, biotinylated)
T1 construct: Bought antigen
T1 sequence (looked up): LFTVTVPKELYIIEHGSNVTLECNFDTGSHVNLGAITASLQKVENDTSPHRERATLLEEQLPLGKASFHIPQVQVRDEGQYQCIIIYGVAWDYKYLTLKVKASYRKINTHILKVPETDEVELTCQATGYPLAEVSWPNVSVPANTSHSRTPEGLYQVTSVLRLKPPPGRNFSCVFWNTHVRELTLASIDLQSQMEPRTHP

B1: bispecific epitope binding protein S10 (bispecific antibody)
heavy: QVQLVQSGAEVKKPGASVKLSCKASGYTFSSYWMHWVRQAPGQGLEWIGEINPGNGHTNYNEKFKSRVTMTRDTSTSTAYMELSSLRSEDTAVYYCARSFKTARAFAYWGQGTLVTVSSASTKGPSVFPLAPSSKSTSGGTAALGCLVKDYFPEPVTVSWNSGALTSGVHTFPAVLQSSGLYSLSSVVTVPSSSLGTQTYICNVNHKPSNTKVDKKVEPKSCDKTHTCPPCPAPEAAGGPSVFLFPPKPKDTLMISRTPEVTCVVVDVSHEDPEVKFNWYVDGVEVHNAKTKPREEQYNSTYRVVSVLTVLHQDWLNGKEYKCAVSNKALPAPIEKTISKAKGQPREPQVYTLPPSREEMTKNQVSLTCLVKGFYPSDIAVEWESNGQPENNYKTTPPVLDSDGSFFLYSKLTVDKSRWQQGNVFSCSVMHEALHNHYTQKSLSLSPGGSTSGSGKPGSGEGSTKGSFLESPDRPWNAPTFSPALLLVAEGDNATFTCSFSNASESFHVVWHRESPSGQTDTLAAFPEDRSQPGQDHRFRVTRLPNGRDFHMSVVRAQRNDSGTYVCGVISLAPKIQIKESLRAELRVTERRAEVPTAHPSPSPRPAGQFQTLVVG
light: DIVMTQSPAFLSVTPGEKVTITCRASQTISDYLHWYQQKPDQAPKLLIKYASQSISGIPSRFSGSGSGTDFTFTISSLEAEDAATYYCQDGHSWPPTFGQGTKLEIKRTVAAPSVFIFPPSDEQLKSGTASVVCLLNNFYPREAKVQWKVDNALQSGNSQESVTEQDSKDSTYSLSSTLTLSKADYEKHKVYACEVTHQGLSSPVTKSFNRGEC
notes: engineered IgG1 Fc; carries euPD-1
B2: bispecific epitope binding protein S03 (bispecific antibody)
chain: DIVMTQSPAFLSVTPGEKVTITCRASQTISDYLHWYQQKPDQAPKLLIKYASQSISGIPSRFSGSGSGTDFTFTISSLEAEDAATYYCQDGHSWPPTFGQGTKLEIKGSTSGSGKPGSGEGSTKGQVQLVQSGAEVKKPGASVKLSCKASGYTFSSYWMHWVRQAPGQGLEWIGEINPGNGHTNYNEKFKSRVTMTRDTSTSTAYMELSSLRSEDTAVYYCARSFKTARAFAYWGQGTLVTVSSASGGGGSGGGGSDKTHTCPPCPAPEAAGGPSVFLFPPKPKDTLMISRTPEVTCVVVDVSHEDPEVKFNWYVDGVEVHNAKTKPREEQYNSTYRVVSVLTVLHQDWLNGKEYKCAVSNKALPAPIEKTISKAKGQPREPQVYTLPPSREEMTKNQVSLTCLVKGFYPSDIAVEWESNGQPENNYKTTPPVLDSDGSFFLYSKLTVDKSRWQQGNVFSCSVMHEALHNHYTQKSLSLSPGGGGGSGGGGSFLESPDRPWNAPTFSPALLLVAEGDNATFTCSFSNASESFHVVWHRESPSGQTDTLAAFPEDRSQPGQDHRFRVTRLPNGRDFHMSVVRAQRNDSGTYVCGVISLAPKIQIKESLRAELRVTERRAEVPTAHPSPSPRPAGQFQTLVVG
notes: Anti-4-1BB 94kvt scFv x euPD-1 with hinge and engineered IgG1 Fc (L234A, L235A, K322A, D356E, L358M)
B3: S13 (PD-L1 null variant of S03) (bispecific antibody)
chain: B2 chain with T547A, I595A, I603A
B4: bispecific epitope binding protein S02 (bispecific antibody)
chain: QVQLVQSGAEVKKPGASVKLSCKASGYTFSSYWMHWVRQAPGQGLEWIGEINPGNGHTNYNEKFKSRVTMTRDTSTSTAYMELSSLRSEDTAVYYCARSFKTARAFAYWGQGTLVTVSSGSTSGSGKPGSGEGSTKGDIVMTQSPAFLSVTPGEKVTITCRASQTISDYLHWYQQKPDQAPKLLIKYASQSISGIPSRFSGSGSGTDFTFTISSLEAEDAATYYCQDGHSWPPTFGQGTKLEIKASGGGGSGGGGSDKTHTCPPCPAPEAAGGPSVFLFPPKPKDTLMISRTPEVTCVVVDVSHEDPEVKFNWYVDGVEVHNAKTKPREEQYNSTYRVVSVLTVLHQDWLNGKEYKCAVSNKALPAPIEKTISKAKGQPREPQVYTLPPSREEMTKNQVSLTCLVKGFYPSDIAVEWESNGQPENNYKTTPPVLDSDGSFFLYSKLTVDKSRWQQGNVFSCSVMHEALHNHYTQKSLSLSPGGGGGSGGGGSFLESPDRPWNAPTFSPALLLVAEGDNATFTCSFSNASESFHVVWHRESPSGQTDTLAAFPEDRSQPGQDHRFRVTRLPNGRDFHMSVVRAQRNDSGTYVCGVISLAPKIQIKESLRAELRVTERRAEVPTAHPSPSPRPAGQFQTLVVGGGGGSGGGGSGGGGSFLESPDRPWNAPTFSPALLLVAEGDNATFTCSFSNASESFHVVWHRESPSGQTDTLAAFPEDRSQPGQDHRFRVTRLPNGRDFHMSVVRAQRNDSGTYVCGVISLAPKIQIKESLRAELRVTERRAEVPTAHPSPSPRPAGQFQTLVVG
notes: Anti-4-1BB 94kvt scFv x euPD-1 with hinge and engineered IgG1 Fc

Assays:
[1] = molecular target: T2, PD-L1 antigen (SinoBiologics, Cat. No. 10084-H08H) (human, UniProt Q9NZQ7 19-238); assay: SPR, Biacore T200; variant captured on CM5, PD-L1 antigen injected
T2 construct: Bought antigen; also called human PD-L1
Method: (§1) Affinity to 4-1BB was determined using the bispecific epitope binding protein variants diluted to 5 μg/ml and then fixed to CM5 chip (Cytiva, BR-1005-30) with human capture (Cytiva, Cat. No. BR-1008-39). The 4-1BB antigen (abclon) was injected at concentrations of 100, 50, 25, 12.5, 6.25, and 3.125 nM, the association time was set to 150 seconds, and the dissociation time was set to 240 seconds. Biacore T200 (cytiva) was used as the analysis equipment.
(§2) Affinity to PD-L1 was determined using the bispecific epitope binding protein variants diluted to 10 μg/ml and then fixed to CM5 chip with human capture.

4-1BB antigen (abclon) = molecular target: T3, 4-1BB antigen (abclon) (UniProt Q07011 24-186); assay: SPR, Biacore T200; variant captured on CM5, 4-1BB antigen injected
T3 construct: Bought antigen
Method: as §1

[2] = molecular target: T4, biotinylated C1q (comp Tech, Cat. No. A099) protein (UniProt P02745 23-245; P02746 28-253; P02747 29-245, biotinylated (chain not stated)); assay: C1q ELISA, S03 coated at 75 nM, biotinylated C1q titrated in 2-fold steps from 2 ug/ml, avidin-HRP
T4 construct: Bought C1q, biotinylated with a kit

[3] = molecular target: T2, PD-L1 antigen (SinoBiologics, Cat. No. …); assay: SPR, Biacore T200; S03 captured on CM5, PD-L1 antigen injected (same values as Table 2)
Method: as §1, §2

[4] = molecular target: T1, biotinylated PD-L2 (SinoBiologics, Cat. …); assay: ELISA, S03 coated in 4-fold dilutions up to 0.1 ug/ml, biotinylated PD-L2 0.1 ug/ml, avidin-HRP
[5] = molecular target: T2, PD-L1 antigen (SinoBiologics, Cat. No. …); assay: SPR, Biacore T200; comparison of S03 with human PD-1-Fc
[6] = molecular target: T2, PD-L1 antigen (SinoBiologics, Cat. No. …); assay: dual antigen ELISA: PD-L1 coated, S03 titrated, detected with biotinylated 4-1BB and avidin-HRP (signal needs both antigens)
[7] = molecular target: T2, PD-L1 antigen (SinoBiologics, Cat. No. …); assay: SPR, Biacore T200; S03 captured on CM5, PD-L1 antigen injected (same values as Table 2); Table 3, comparison with natural PD1-Fc
[8] = molecular target: T2, PD-L1 antigen (SinoBiologics, Cat. No. …); assay: ELISA, PD-L1 antigen coated, anti-human IgG Fc-HRP detection, 11 points

T2 sequence (Q9NZQ7 19-238 limits assumed): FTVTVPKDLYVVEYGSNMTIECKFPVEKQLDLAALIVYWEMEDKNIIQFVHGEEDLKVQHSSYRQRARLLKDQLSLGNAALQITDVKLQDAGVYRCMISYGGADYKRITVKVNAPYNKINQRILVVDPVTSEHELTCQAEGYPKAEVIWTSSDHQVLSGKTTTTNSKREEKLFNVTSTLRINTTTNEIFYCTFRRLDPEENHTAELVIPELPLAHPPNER
T3 sequence (Q07011 24-186): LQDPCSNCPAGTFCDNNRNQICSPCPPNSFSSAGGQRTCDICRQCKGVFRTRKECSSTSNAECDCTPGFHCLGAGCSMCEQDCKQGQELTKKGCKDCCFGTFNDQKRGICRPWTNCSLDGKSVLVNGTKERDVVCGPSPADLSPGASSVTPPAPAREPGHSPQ
T4 sequence (P02745 23-245, chain 1 of 3): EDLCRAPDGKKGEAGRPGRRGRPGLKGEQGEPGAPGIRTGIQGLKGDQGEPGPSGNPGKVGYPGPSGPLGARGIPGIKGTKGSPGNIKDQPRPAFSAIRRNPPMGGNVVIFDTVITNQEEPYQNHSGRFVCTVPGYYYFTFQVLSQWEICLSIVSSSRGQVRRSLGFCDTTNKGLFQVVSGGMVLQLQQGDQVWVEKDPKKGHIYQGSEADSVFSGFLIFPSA
T4 sequence (P02746 28-253, chain 2 of 3): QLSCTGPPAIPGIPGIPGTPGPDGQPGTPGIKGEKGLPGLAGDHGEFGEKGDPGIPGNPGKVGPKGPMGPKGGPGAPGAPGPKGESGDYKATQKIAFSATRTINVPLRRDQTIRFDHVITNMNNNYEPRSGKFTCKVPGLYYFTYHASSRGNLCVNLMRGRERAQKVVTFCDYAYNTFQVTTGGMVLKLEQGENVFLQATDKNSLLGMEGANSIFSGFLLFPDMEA
T4 sequence (P02747 29-245, chain 3 of 3): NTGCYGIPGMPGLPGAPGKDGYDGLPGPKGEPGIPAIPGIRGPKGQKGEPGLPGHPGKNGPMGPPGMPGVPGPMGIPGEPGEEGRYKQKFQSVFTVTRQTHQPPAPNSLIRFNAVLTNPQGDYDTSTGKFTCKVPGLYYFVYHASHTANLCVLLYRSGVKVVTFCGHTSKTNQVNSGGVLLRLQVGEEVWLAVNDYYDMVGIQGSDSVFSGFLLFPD

Binder | Kd [1] | koff [1] | kon [1] | Kd (4-1BB antigen (abclon)) | koff (4-1BB antigen (abclon)) | kon (4-1BB antigen (abclon)) | binding result [2] | Kd [3] | koff [3] | binding result [4] | fold stronger binding than natural PD-1 (human PD-1-Fc) [5] | EC50 (read off the curve) [6] | kon [7] | binding result [8]
B1 | 3.73 nM | 0.00141 s⁻¹ | 377000 M⁻¹ s⁻¹ | 2.3 nM | 0.000601 s⁻¹ | 262000 M⁻¹ s⁻¹ |  |  |  |  |  |  |  | 
B2 | 5.07 nM | 0.00115 s⁻¹ | 227000 M⁻¹ s⁻¹ | 3.05 nM | 0.000634 s⁻¹ | 208000 M⁻¹ s⁻¹ | no binding (tested: 2 ug/ml C1q) | 5.07 nM | 0.00115 s⁻¹ | no binding (tested: log10 2.0 ng/mL (100 ng/mL coated)) | ~93 fold | ~0.05 µg/mL | 227000 M⁻¹ s⁻¹ | 
B3 |  |  |  |  |  |  |  |  |  |  |  |  |  | no binding (tested: log 1.7 ug/mL as drawn (about 50 ug/mL))
B4 | 4.06 nM | 0.00132 s⁻¹ | 324000 M⁻¹ s⁻¹ | 3.67 nM | 0.000658 s⁻¹ | 179000 M⁻¹ s⁻¹ |  |  |  |  |  |  |  | 
